Measured values published in patent publication US20110288009A1, “LEPTIN AND LEPTIN ANALOG CONJUGATES AND USES THEREOF” (Angiochem Inc., priority 2008, published 2011).

Columns and labels:
[1] = in situ brain perfusion; threshold definition of efficient transport; cited from earlier work
[2] = in situ perfusion assay in lean and diet-induced obese (DIO) mice; type: in vivo; details: DIO mice compared with lean mice; FIG. 4A
Description: Blood Flow Metab. 20(2):381-386.

ob/ob mice = assay: body weight of ob/ob mice treated with recombinant leptin; type: in vivo; details: 0.1 mg/mouse or 0.25 mg/mouse daily, FIG. 21
Procedure: As a control, we tested the ability of recombinant leptin to reduce body weight in ob/ob mice using either 0.1 mg/mouse or 0.25 mg/mouse daily.

| Molecule | transport across the BBB relative to that of Angiopep-1 (250 nM) [1] | transport across the BBB in DIO mice versus lean mice [2] | body weight (ob/ob mice) |
| --- | --- | --- | --- |
| T F F Y G G S R G K R N N F R T E E Y (TFFYGGSRGKRNNFRTEEY) [Angiopep-6] | 38.5% |  |  |
| leptin: recombinant leptin used as control and comparator in Example 5 (protein, UniProt P41160 22-167, looked up) Leptin: VPIQKVQDDTKTLIKTIVTRINDISHTQSVSAKQRVTGLDFIPGLHPILSLSKMDQTLAVYQQVLTSLPSQNVLQIANDLENLRDLLHLLAFSKSCSLPQTSGLQKPESLDGVLEASLYSTEVVALSRLQGSLQDILQQLDVSPEC |  | reduced as compared to in lean mice | reduce body weight in these mice in a dose-dependent manner |
